In this data set the target is recombinant human C5a (UniProt P01031).
Chain of recombinant human C5a (P01031 678-751): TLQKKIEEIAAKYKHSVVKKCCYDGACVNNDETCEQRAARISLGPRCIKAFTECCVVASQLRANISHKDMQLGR

For the substance “ScpB, the C5a peptidase of GBS, on whole cells of strain COH1”, the “C5a protease activity (C5a-stimulated PMN adherence to gelatin-coated plastic after preincubating C5a with GBS)” value is “Preincubation of C5a with COH1 or TOH121 abolished C5a activity”.

For the origin of these results see patent publication US20050002950.
